Source: PMC7544229, “Periphilin self-association underpins epigenetic silencing by the HUSH complex” (Nucleic Acids Research, 2020)

T1: TASOR fragment (residues 1014–1095) (human, UniProt Q9UK61-1 1014-1095)
T1 construct: codon-optimized synthetic gene; untagged; Residues 1055–1071 are disordered in the crystal structure; also called untagged TASOR fragment; minimal core TASOR; source: E. coli BL21 (DE3), co-expressed with His6-Periphilin fragments from pRSF-Duet, co-purified with Periphilin
T1 sequence (looked up): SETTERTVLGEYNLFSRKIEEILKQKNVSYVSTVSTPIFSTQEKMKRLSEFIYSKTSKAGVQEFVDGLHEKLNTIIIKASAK

B1: Periphilin fragment (residues 292–367) (domain or fragment, human, UniProt Q8NEY8-2 292-367, looked up)
chain: SQLTTRSKAIASKTKEIEQVYRQDCETFGMVVKMLIEKDPSLEKSIQFALRQNLHEIGERCVEELKHFIAEYDTST
notes: codon-optimized synthetic gene; preceded by a His6 tag and a TEV site (ENLYFQG), digested with TEV protease; Two copies of this chain form a homodimer in the 2:1 complex with TASOR; A residue of the TEV site (G) may remain at the N-terminus after cleavage; not shown: His6, N-terminal, cleaved
B2: His6-tagged Periphilin residues 285–374 (domain or fragment, human, UniProt Q8NEY8-2 285-374, looked up)
chain: GIELFEDSQLTTRSKAIASKTKEIEQVYRQDCETFGMVVKMLIEKDPSLEKSIQFALRQNLHEIGERCVEELKHFIAEYDTSTQDFGEPF
notes: codon-optimized synthetic gene; Construct used for NMR and native mass spectrometry of the Periphilin-TASOR complex; not shown: His6, N-terminal, kept

What was measured:
[1] = target: T1, TASOR fragment (residues 1014–1095); experiment: SEC-MALS; minimal Periphilin-TASOR core complex; Superdex 200 10/300 in PBS, 293 K, 0.5 ml/min; conditions: both partners purified
[2] = target: the molecule itself; experiment: crystal structure; Periphilin 292–367 with TASOR 1014–1095; sitting drop, 18°C, 0.1 M citrate pH 4.5, 1 M ammonium sulfate; SAD phasing with Br; refined at 2.5 Å
[3] = target: T1, TASOR fragment (residues 1014–1095); experiment: native MS; non-denaturing mass spectrometry of the His6-Periphilin 285–374 / TASOR 1014–1095 complex; conditions not shown; conditions: both partners purified

Binder | stoichiometry N [1] | binding result [2] | stoichiometry N [3]
B1 | 2 Periphilin per TASOR | binds | 
B2 |  |  | 2 Periphilin per TASOR
